We go through 1 protein from PMC4246082, “A Coiled-coil Clamp Controls Both Conformation and Clustering of Stromal Interaction Molecule 1 (STIM1)*” (The Journal of Biological Chemistry, 2014).

This data set concerns the molecule itself. Briefly: SEC; Superdex S200 10/300 GL, 4 °C; 100-μl injections of 1.25 mg/ml and 0.25 mg/ml CC3ext; in-line MALS gave no molecular weight because of elution in the void volume. (Size exclusion chromatography separates by hydrodynamic size, large species first.)

B1: STIM1 CC3ext (residues 388-491) (domain or fragment, human, UniProt Q13586-1 388-491, looked up)
chain: NTLFGTFHVAHSSSLDDVDHKILTAKQALSEVTAALRERLHRWQQIEILCGFQIVNNPGIHSLVAALNIDPSWMGSTRPNPAHFIMTDDVDDMDEEIVSPLSMQ
notes: STIM1, human, residues 388-491 (CC3ext); Subcloned into pET-28a via NheI and XhoI; monomer 12.2 kDa on SDS-PAGE; also called recombinant CC3 fragment
As to B1, the binding result was “binds”.
